IntAct's records for PubMed 31515488

B1: Angiomotin (Homo sapiens), Q4VCS5 (parent)
chain: MRNSEEQPSGGTTVLQRLLQEQLRYGNPSENRSLLAIHQQATGNGPPFPSGSGNPGPQSDVLSPQDHHQQLVAHAARQEPQGQEIQSENLIMEKQLSPRMQNNEELPTYEEAKVQSQYFRGQQHASVGAAFYVTGVTNQKMRTEGRPSVQRLNPGKMHQDEGLRDLKQGHVRSLSERLMQMSLATSGVKAHPPVTSAPLSPPQPNDLYKNPTSSSEFYKAQGPLPNQHSLKGMEHRGPPPEYPFKGMPPQSVVCKPQEPGHFYSEHRLNQPGRTEGQLMRYQHPPEYGAARPAQDISLPLSARNSQPHSPTSSLTSGGSLPLLQSPPSTRLSPARHPLVPNQGDHSAHLPRPQQHFLPNQAHQGDHYRLSQPGLSQQQQQQQQQHHHHHHHQQQQQQQPQQQPGEAYSAMPRAQPSSASYQPVPADPFAIVSRAQQMVEILSDENRNLRQELEGCYEKVARLQKVETEIQRVSEAYENLVKSSSKREALEKAMRNKLEGEIRRMHDFNRDLRERLETANKQLAEKEYEGSEDTRKTISQLFAKNKESQREKEKLEAELATARSTNEDQRRHIEIRDQALSNAQAKVVKLEEELKKKQVYVDKVEKMQQALVQLQAACEKREQLEHRLRTRLERELESLRIQQRQGNCQPTNVSEYNAAALMELLREKEERILALEADMTKWEQKYLEENVMRHFALDAAATVAAQRDTTVISHSPNTSYDTALEARIQKEEEEILMANKRCLDMEGRIKTLHAQIIEKDAMIKVLQQRSRKEPSKTEQLSCMRPAKSLMSISNAGSGLLSHSSTLTGSPIMEEKRDDKSWKGSLGILLGGDYRAEYVPSTPSPVPPSTPLLSAHSKTGSRDCSTQTERGTESNKTAAVAPISVPAPVAAAATAAAITATAATITTTMVAAAPVAVAAAAAPAAAAAPSPATAAATAAAVSPAAAGQIPAAASVASAAAVAPSAAAAAAVQVAPAAPAPVPAPALVPVPAPAAAQASAPAQTQAPTSAPAVAPTPAPTPTPAVAQAEVPASPATGPGPHRLSIPSLTCNPDKTDGPVFHSNTLERKTPIQILGQEPDAEMVEYLI
partner: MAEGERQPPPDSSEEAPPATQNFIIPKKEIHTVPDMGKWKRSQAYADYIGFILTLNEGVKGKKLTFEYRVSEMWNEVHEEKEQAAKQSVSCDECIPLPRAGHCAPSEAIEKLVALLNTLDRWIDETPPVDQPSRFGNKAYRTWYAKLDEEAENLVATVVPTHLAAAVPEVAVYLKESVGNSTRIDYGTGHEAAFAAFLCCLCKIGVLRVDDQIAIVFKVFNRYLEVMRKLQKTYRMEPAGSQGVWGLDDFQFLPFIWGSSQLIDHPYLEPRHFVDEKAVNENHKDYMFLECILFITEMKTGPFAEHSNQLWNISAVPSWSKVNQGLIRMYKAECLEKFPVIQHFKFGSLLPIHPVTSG
B2: Dual specificity protein phosphatase 21 (Homo sapiens), Q9H596 (parent)
chain: MTASASSFSSSQGVQQPSIYSFSQITRSLFLSNGVAANDKLLLSSNRITAIVNASVEVVNVFFEGIQYIKVPVTDARDSRLYDFFDPIADLIHTIDMRQGRTLLHCMAGVSRSASLCLAYLMKYHSMSLLDAHTWTKSRRPIIRPNNGFWEQLINYEFKLFNNNTVRMINSPVGNIPDIYEKDLRMMISM
B3: Cyclin-dependent kinase 4 inhibitor C (Homo sapiens), P42773 (parent)
chain: MAEPWGNELASAAARGDLEQLTSLLQNNVNVNAQNGFGRTALQVMKLGNPEIARRLLLRGANPDLKDRTGFAVIHDAARAGFLDTLQTLLEFQADVNIEDNEGNLPLHLAAKEGHLRVVEFLVKHTASNVGHRNHKGDTACDLARLYGRNEVVSLMQANGAGGATNLQ

Variants of: B1
Conditions: with ptpa_human PTPA

effect of a mutation on the interaction | Variant
with no effect | T899A

Variants of: B2
Conditions: with gors2_human GORASP2, Q9H8Y8

effect of a mutation on the interaction | Variant
with no effect | S18F

Variants of: B3
Conditions: with cdk6_human CDK6, Q00534
Chain of cdk6_human CDK6, Q00534 (Q00534 whole entry): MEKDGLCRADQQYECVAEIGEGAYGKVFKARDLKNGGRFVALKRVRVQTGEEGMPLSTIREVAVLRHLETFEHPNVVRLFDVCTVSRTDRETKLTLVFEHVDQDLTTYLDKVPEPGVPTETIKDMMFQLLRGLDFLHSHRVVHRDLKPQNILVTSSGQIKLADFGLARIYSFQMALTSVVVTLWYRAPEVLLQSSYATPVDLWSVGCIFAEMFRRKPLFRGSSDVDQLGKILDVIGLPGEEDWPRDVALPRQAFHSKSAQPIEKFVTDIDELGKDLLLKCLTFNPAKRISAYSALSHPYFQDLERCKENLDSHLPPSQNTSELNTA

effect of a mutation on the interaction | Variant
with no effect | R117Q
with no effect | T69A
with no effect | V31L

Variants of: B3
Conditions: with cdk4_human CDK4, P11802

effect of a mutation on the interaction | Variant
with no effect | T69A
with no effect | V31L

Variants of: B3
Conditions: with itf2_human TCF4, P15884
Chain of itf2_human TCF4, P15884 (P15884 whole entry): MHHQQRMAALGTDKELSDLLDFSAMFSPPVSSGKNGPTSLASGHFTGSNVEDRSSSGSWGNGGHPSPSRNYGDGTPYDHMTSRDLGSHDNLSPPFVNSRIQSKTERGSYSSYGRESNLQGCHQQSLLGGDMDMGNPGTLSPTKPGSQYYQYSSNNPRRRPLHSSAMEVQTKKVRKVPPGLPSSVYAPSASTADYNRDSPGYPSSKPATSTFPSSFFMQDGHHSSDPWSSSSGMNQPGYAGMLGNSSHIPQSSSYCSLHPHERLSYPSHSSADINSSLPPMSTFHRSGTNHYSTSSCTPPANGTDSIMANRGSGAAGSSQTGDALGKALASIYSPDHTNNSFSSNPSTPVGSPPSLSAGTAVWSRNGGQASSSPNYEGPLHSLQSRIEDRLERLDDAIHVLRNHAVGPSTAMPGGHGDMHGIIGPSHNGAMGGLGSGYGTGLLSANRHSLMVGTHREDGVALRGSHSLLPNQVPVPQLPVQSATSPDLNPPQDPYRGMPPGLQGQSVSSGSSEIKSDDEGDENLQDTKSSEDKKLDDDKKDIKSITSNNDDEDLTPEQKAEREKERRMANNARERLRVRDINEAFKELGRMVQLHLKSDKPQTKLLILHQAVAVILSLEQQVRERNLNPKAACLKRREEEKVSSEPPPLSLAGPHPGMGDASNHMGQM

effect of a mutation on the interaction | Variant
with no effect | T69A
disrupting interaction strength | V31L

Variants of: B3
Conditions: with htf4_human TCF12, Q99081
Chain of htf4_human TCF12, Q99081 (Q99081 whole entry): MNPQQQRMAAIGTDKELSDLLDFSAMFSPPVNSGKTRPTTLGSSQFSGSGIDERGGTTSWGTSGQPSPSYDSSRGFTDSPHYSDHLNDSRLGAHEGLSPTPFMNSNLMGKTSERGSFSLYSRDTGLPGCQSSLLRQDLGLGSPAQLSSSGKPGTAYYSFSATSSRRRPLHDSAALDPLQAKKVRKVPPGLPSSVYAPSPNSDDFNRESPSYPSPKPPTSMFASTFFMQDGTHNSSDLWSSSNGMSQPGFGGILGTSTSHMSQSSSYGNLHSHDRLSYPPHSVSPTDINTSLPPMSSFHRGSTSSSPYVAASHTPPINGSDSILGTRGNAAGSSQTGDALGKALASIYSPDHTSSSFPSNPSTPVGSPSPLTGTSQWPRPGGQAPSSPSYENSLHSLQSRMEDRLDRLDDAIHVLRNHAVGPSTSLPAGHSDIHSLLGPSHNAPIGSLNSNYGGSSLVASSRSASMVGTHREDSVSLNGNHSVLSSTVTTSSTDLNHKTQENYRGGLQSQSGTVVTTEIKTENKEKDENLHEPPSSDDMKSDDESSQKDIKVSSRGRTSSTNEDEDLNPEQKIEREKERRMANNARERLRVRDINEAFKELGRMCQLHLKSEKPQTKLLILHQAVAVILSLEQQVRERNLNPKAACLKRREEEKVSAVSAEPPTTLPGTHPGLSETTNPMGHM

effect of a mutation on the interaction | Variant
disrupting interaction strength | V31L

Variants of: B3
Conditions: with nagk_human NAGK

effect of a mutation on the interaction | Variant
disrupting interaction strength | V31L

Variants of: B3
Conditions: with sahh2_human AHCYL1, O43865
Chain of sahh2_human AHCYL1, O43865 (O43865 whole entry): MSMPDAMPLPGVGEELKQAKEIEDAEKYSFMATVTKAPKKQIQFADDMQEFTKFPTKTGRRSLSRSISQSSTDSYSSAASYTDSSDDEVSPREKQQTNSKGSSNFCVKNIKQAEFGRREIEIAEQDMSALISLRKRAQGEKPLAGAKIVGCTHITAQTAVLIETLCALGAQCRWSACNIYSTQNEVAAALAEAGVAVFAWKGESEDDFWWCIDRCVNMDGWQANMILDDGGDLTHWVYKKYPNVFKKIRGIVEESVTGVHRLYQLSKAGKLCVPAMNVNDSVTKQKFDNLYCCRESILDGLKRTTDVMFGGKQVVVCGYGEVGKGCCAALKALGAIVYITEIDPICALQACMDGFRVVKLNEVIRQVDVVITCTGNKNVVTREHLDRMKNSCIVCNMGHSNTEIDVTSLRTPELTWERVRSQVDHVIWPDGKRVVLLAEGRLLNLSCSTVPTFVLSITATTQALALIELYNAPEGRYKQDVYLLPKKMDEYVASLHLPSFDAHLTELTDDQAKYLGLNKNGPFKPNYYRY

effect of a mutation on the interaction | Variant
disrupting interaction strength | V31L
